For one substance, stoichiometry N results are on record in PMC11134845.

What is called stoichiometry N is the number of molecules, sites or subunits per partner or assembly.

In the assay the target is HSV-2G gB ectodomain (recombinant glycoprotein B of Herpes simplex virus 2 strain G, aa 22-724) (Herpes simplex virus 2 (strain G)). The experiment in a line: cryo-EM structure.

With “HSV-2G gB ectodomain (recombinant glycoprotein B of Herpes simplex virus 2 strain G, aa 22-724) (domain or fragment)”, the stoichiometry N came out at 3.
